Measurements: patent publication US10064926B2, “Peptides and combination of peptides for use in immunotherapy against hepatocellular carcinoma (HCC) and other cancers” (Immatics biotechnologies GmbH, priority 2014, dated 2018)

Molecular target: HLA-A*02 (Homo sapiens, UniProt P04439, D140Y/D185E/D98H/E176V/E277Q/G131W/G231S/I119V/I121R/I166T/I218V/N151K/N90K/P208A/P217A/Q86G/Q94H/R138H/R169H)
Test: UV-ligand exchange / peptide binding to MHC class I (beta2m ELISA)
Conditions: Table 10B; peptide exchange yield; HLA-A*02 peptides
Source text: Candidate peptides for T cell based therapies according to the present invention were further tested for their MHC binding capacity (affinity). The individual peptide-MHC complexes were produced by UV-ligand exchange, where a UV-sensitive peptide is cleaved upon UV-irradiation, and exchanged with the peptide of interest as analyzed. Only peptide candidates that can effectively bind and stabilize the peptide-receptive MHC molecules prevent dissociation of the MHC complexes. To determine the yield of the exchange reaction, an ELISA was performed based on the detection of the light chain (β2m) of stabilized MHC complexes. The assay was performed as generally described in Rodenko et al. (Rodenko B, Toebes M, Hadrup S R, van Esch W J, Molenaar A M, Schumacher T N, Ovaa H. Generation of peptide-MHC class I complexes through UV-mediated ligand exchange. Nat Protoc. 2006; 1(3):1120-32).
96 well MAXISorp plates (NUNC) were coated over night with 2 ug/ml streptavidin in PBS at room temperature, washed 4× and blocked for 1 h at 37° C. in 2% BSA containing blocking buffer. Refolded HLA-A*0201/MLA-001 monomers served as standards, covering the range of 15-500 ng/ml. Peptide-MHC monomers of the UV-exchange reaction were diluted 100 fold in blocking buffer. Samples were incubated for 1 h at 37° C., washed four times, incubated with 2 ug/ml HRP conjugated anti-β2m for 1 h at 37° C., washed again and detected with TMB solution that is stopped with […]. Absorption was measured at 450 nm. Candidate peptides that show a high exchange yield (preferably higher than 50%, most preferred higher than 75%) are generally preferred for a generation and production of antibodies or fragments thereof, and/or T cell receptors or fragments thereof, as they show sufficient avidity to the MHC molecules and prevent dissociation of the MHC complexes.

Row | Substance | Peptide exchange (MHC class I binding score)
1 | 78 (LLIDDEYKV; listed as Homo sapiens) [compound 78] | “+++” (≥50 = +++)
2 | 80 (LLYEGKLTL; listed as Homo sapiens) [compound 80] | “++++” (≥75% = ++++)
3 | 81 (NLASFIEQVAV; listed as Homo sapiens) [compound 81] | “+++” (≥50 = +++)
4 | 82 (NVFDGLVRV; listed as Homo sapiens) [compound 82] | “+++” (≥50 = +++)
5 | 83 (QLHDFVMSL; listed as Homo sapiens) [compound 83] | “++++” (≥75% = ++++)
6 | 84 (QLTPVLVSV; listed as Homo sapiens) [compound 84] | “+++” (≥50 = +++)
7 | 85 (RILPKVLEV; listed as Homo sapiens) [compound 85] | “+++” (≥50 = +++)
8 | 86 (RLAAFYSQV; listed as Homo sapiens) [compound 86] | “+++” (≥50 = +++)
9 | 87 (RLFEENDVNL; listed as Homo sapiens) [compound 87] | “+++” (≥50 = +++)
10 | 88 (RLIDRIKTV; listed as Homo sapiens) [compound 88] | “++” (≥20% = ++)
11 | 89 (RLIEEIKNV; listed as Homo sapiens) [compound 89] | “++” (≥20% = ++)
12 | 90 (RLLDVLAPLV; listed as Homo sapiens) [compound 90] | “+++” (≥50 = +++)
13 | 91 (RLPDIPLRQV; listed as Homo sapiens) [compound 91] | “+++” (≥50 = +++)
14 | 92 (RLPPDTLLQQV; listed as Homo sapiens) [compound 92] | “+++” (≥50 = +++)
15 | 93 (RLYTMDGITV; listed as Homo sapiens) [compound 93] | “++” (≥20% = ++)
16 | 94 (RMSDVVKGV; listed as Homo sapiens) [compound 94] | “+++” (≥50 = +++)
17 | 95 (SICNGVPMV; listed as Homo sapiens) [compound 95] | “+++” (≥50 = +++)
18 | 96 (SLLEEPNVIRV; listed as Homo sapiens) [compound 96] | “++++” (≥75% = ++++)
19 | 97 (SLLPQLIEV; listed as Homo sapiens) [compound 97] | “++++” (≥75% = ++++)
20 | 98 (SLLSPEHLQYL; listed as Homo sapiens) [compound 98] | “+++” (≥50 = +++)
21 | 99 (SLSAFLPSL; listed as Homo sapiens) [compound 99] | “++++” (≥75% = ++++)
22 | 100 (SLVGDIGNVNM; listed as Homo sapiens) [compound 100] | “++” (≥20% = ++)
23 | 101 (SLWEGGVRGV; listed as Homo sapiens) [compound 101] | “+++” (≥50 = +++)
24 | 102 (SLWSVARGV; listed as Homo sapiens) [compound 102] | “+++” (≥50 = +++)
25 | 103 (SMGDHLWVA; listed as Homo sapiens) [compound 103] | “+++” (≥50 = +++)

Second part, the substance after the results:

Row | Peptide exchange (MHC class I binding score) | Substance
26 | “+++” (≥50 = +++) | 104 (SVWFGPKEV; listed as Homo sapiens) [compound 104]
27 | “++++” (≥75% = ++++) | 105 (SVYDGKLLI; listed as Homo sapiens) [compound 105]
28 | “+++” (≥50 = +++) | 106 (TLAAIIHGA; listed as Homo sapiens) [compound 106]
29 | “++++” (≥75% = ++++) | 107 (TLGQFYQEV; listed as Homo sapiens) [compound 107]
30 | “+++” (≥50 = +++) | 108 (TLLKKISEA; listed as Homo sapiens) [compound 108]
31 | “+++” (≥50 = +++) | 109 (TLYALSHAV; listed as Homo sapiens) [compound 109]
32 | “++++” (≥75% = ++++) | 110 (TVGGSEILFEV; listed as Homo sapiens) [compound 110]
33 | “+++” (≥50 = +++) | 111 (TVMDIDTSGTFNV; listed as Homo sapiens) [compound 111]
34 | “++++” (≥75% = ++++) | 112 (VLGEVKVGV; listed as Homo sapiens) [compound 112]
35 | “++++” (≥75% = ++++) | 113 (VLMDKLVEL; listed as Homo sapiens) [compound 113]
36 | “+++” (≥50 = +++) | 114 (VLSQVYSKV; listed as Homo sapiens) [compound 114]
37 | “+++” (≥50 = +++) | 115 (VVLDDKDYFL; listed as Homo sapiens) [compound 115]
38 | “+++” (≥50 = +++) | 117 (YAFPKSITV; listed as Homo sapiens) [compound 117]
39 | “+++” (≥50 = +++) | 118 (YLDDEKNWGL; listed as Homo sapiens) [compound 118]
40 | “+++” (≥50 = +++) | 119 (YLDKNLTVSV; listed as Homo sapiens) [compound 119]
41 | “++” (≥20% = ++) | 120 (YLGEEYVKA; listed as Homo sapiens) [compound 120]
42 | “+++” (≥50 = +++) | 121 (YLITGNLEKL; listed as Homo sapiens) [compound 121]
43 | “++” (≥20% = ++) | 122 (YLSQAADGAKVL; listed as Homo sapiens) [compound 122]
44 | “+++” (≥50 = +++) | 123 (YLWDLDHGFAGV; listed as Homo sapiens) [compound 123]
45 | “++++” (≥75% = ++++) | 124 (LLIDVVTYL; listed as Homo sapiens) [compound 124]
46 | “++++” (≥75% = ++++) | 125 (ALYGRLEVV; listed as Homo sapiens) [compound 125]
47 | “+++” (≥50 = +++) | 126 (TLLDSPIKV; listed as Homo sapiens) [compound 126]
48 | “++++” (≥75% = ++++) | 127 (VLIGSNHSL; listed as Homo sapiens) [compound 127]
49 | “++++” (≥75% = ++++) | 128 (GLAFSLNGV; listed as Homo sapiens) [compound 128]
50 | “+++” (≥50 = +++) | 129 (SQADVIPAV; listed as Homo sapiens) [compound 129]
51 | “++++” (≥75% = ++++) | 130 (ALDAGAVYTL; listed as Homo sapiens) [compound 130]
52 | “+++” (≥50 = +++) | 131 (ALDSGAFQSV; listed as Homo sapiens) [compound 131]
53 | “+++” (≥50 = +++) | 132 (ALHEEVVGV; listed as Homo sapiens) [compound 132]
54 | “+++” (≥50 = +++) | 133 (ALLEMDARL; listed as Homo sapiens) [compound 133]
